Data set [1] can be described thus: folding stability dG unfold from trypsin proteolysis; higher = more stable. In a few lines:
(§1)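 Bayesian fitting of sequencing counts gave K50 for each design. Unfolding free energy followed by setting this against a sequence-predicted unfolded-state K50 and a shared folded-state K50, either per protease or with trypsin and chymotrypsin combined. The designs, under 80 residues and lacking cysteine, were digested in a PA-tagged cDNA display format at 11 threefold-diluted protease concentrations and without protease, and only those with AlphaFold2 dimer inter-PAE above 15 were kept.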

Data set [2] is described as follows: folding stability dG unfold from chymotrypsin proteolysis; higher = more stable. In a few lines:
as §1

The nature of data set [3]: folding stability dG unfold (combined trypsin and chymotrypsin); higher = more stable. Summed up:
as §1

± gives the half width of the 95% confidence interval.

On to “SASEDETVETTTTTTSTFTLPNGETVTLTTTTKTTEKILPETGEVVESTTTTTTVTRTDASTTTTVATSSAG [r14_333_JUSTAS]”, for which the results for the “folding stability dG unfold” value in data set [1], in data set [2] and in data set [3] were 1.12 ± 0.068 kcal/mol, 1.22 ± 0.082 kcal/mol and 1.27 ± 0.11 kcal/mol, respectively.
The corresponding values for “SASEDGYVVVEITIPIEIYMPMYKYSPDGKWKWEPHQMEIKLEITVQVKKDPEAADRAREFADRILDYISAG [r14_830_TrROS]” are 2.7 ± 0.13 kcal/mol, 3.59 ± 0.21 kcal/mol and 3.22 ± 0.23 kcal/mol.
The like results for “SASFTLTITPVSTLPGGEVKYEVTVTTPTATVTLSATYDPATGLITVTFPETGSTVTFDPATGTVTVTPSAG [r14_260_JUSTAS]” were, in that order, 3.93 ± 0.12 kcal/mol, 5.089 ± 0.032 kcal/mol and 5.05 ± 0.083 kcal/mol.
“SASITHTVPGVQVRAYLNPDGYMFIQVYNPNDGEPKQPIWMPPDHITDVEVTGDWVKITIKMDPEDFKLSAG [r14_755_TrROS]”: the “folding stability dG unfold” value in data set [1] came out at 1.25 ± 0.052 kcal/mol; in data set [2], 2.32 ± 0.08 kcal/mol; in data set [3] it was 2.06 ± 0.16 kcal/mol.
The corresponding values for “SASITLTAPGGKPVTLPVPPSLSVLSVELDPATGRWTIELQDPATGERFTVTVYAPPSGPAGVEVTPNVSAG [r14_311_JUSTAS]” are 3.61 ± 0.04 kcal/mol, 3.409 ± 0.02 kcal/mol and 3.486 ± 0.032 kcal/mol.
Turning to “SASLGISKIETSSLPNGTTVVTVTFSKPNLKVTLTKNPDGTITITLSPEVKKLPEEVKKLVEELAAKLSSAG [r14_555_JUSTAS]”, the “folding stability dG unfold” value was found to be 3.97 ± 0.1 kcal/mol in data set [1], 3.97 ± 0.048 kcal/mol in data set [2] and 3.95 ± 0.095 kcal/mol in data set [3].
The like results for “SASMGPEALVERIAEEIRKELGVDAGYKAPVEVRRPPDLVVVDAKLTVYKPDGNPLGEKTVRVVLPPLLSAG [r14_708_JUSTAS]” were, in that order, -0.0399 ± 0.083 kcal/mol, 0.0373 ± 0.22 kcal/mol and 0.129 ± 0.29 kcal/mol.
The like results for “SASMIIDPVSSEEEIEKLVKEAIEAGIGGEGLIVLRSDGKVYRITIEPGTGKVKKEEVMSPEELAAKLGSAG [r14_913_JUSTAS]” were, in that order, 1.75 ± 0.053 kcal/mol, 2.11 ± 0.051 kcal/mol and 2.12 ± 0.16 kcal/mol.
The like results for “SASMIQKYFKSQGYKIEKIEEKTLPNGERVVSYKITSTVNVPPNEKGVSKPVKKTTELTLSTEEAIKLGSAG [r14_16_JUSTAS]” were, in that order, 0.304 ± 0.14 kcal/mol, 1.32 ± 0.21 kcal/mol and 1.04 ± 0.15 kcal/mol.
In the case of “SASMSPEELIEIEIELKRGNRNFTLKIKIPVGLSEEEIEEAIEKAKKELEEKVKKLEEEPPLNPENNLISAG [r14_70_JUSTAS]”, the figures for the “folding stability dG unfold” value in data set [1], in data set [2] and in data set [3] were 2.33 ± 0.17 kcal/mol, 3.45 ± 0.06 kcal/mol and 3.11 ± 0.12 kcal/mol, respectively.
As for “SASSETFEIEVKVKLFFRDPEKGKLVEREFDAIVKVTVNPETGEVKVEVYFKPLGKPVTITLPPGASIESAG [r14_587_TrMRF]”, the “folding stability dG unfold” value worked out at 3.13 ± 0.2 kcal/mol in data set [1], 4.54 ± 0.16 kcal/mol in data set [2] and 4.26 ± 0.21 kcal/mol in data set [3].
The corresponding values for “SASSITVSYDESTGVTTVTVDGGGFTFTVPNPEGKTLTVTVTQEALPDGTTRVTVTITFPDGSTTTVVVSAG [r14_675_JUSTAS]” are 4.17 ± 0.2 kcal/mol, 5 ± 0.18 kcal/mol and 5.06 ± 0.17 kcal/mol.
As to “SASSSTTTSSGTLEEVLQQVEDYLKANPNTLVTIAPPDGTTTTVDLSYSPSIAVNGDPSGLTTVTITNSSAG [r14_807_JUSTAS]”, the entries for the “folding stability dG unfold” value in data set [1], in data set [2] and in data set [3] were 1.57 ± 0.057 kcal/mol, 0.932 ± 0.032 kcal/mol and 1.23 ± 0.09 kcal/mol, respectively.
The corresponding values for “SASTSSISTETESRKISSFTVGDKEYEIYENTTTTTLPDGSVVTTTTLSVKDPSSNVTKTLSSTTTFTPSAG [r14_195_JUSTAS]” are 2.09 ± 0.044 kcal/mol, 2.49 ± 0.03 kcal/mol and 2.32 ± 0.12 kcal/mol.
The corresponding values for “SATGAIVLEKPVEFNIPDKNGKPVFKSKVLIFVDPGKDKVYALIYDPKTGKKLIVEFNSPEEVKKFFESSAG [r14_508_TrMRF]” are 1.65 ± 0.031 kcal/mol, 1.54 ± 0.12 kcal/mol and 1.65 ± 0.077 kcal/mol.
The like results for “SATITVHNPWNGQPIEIRIDPGMTPEEIKKKIEKVPGIPPGTRDAVEKAIEYFEAYRQNPEQRKKLKKESAG [r14_732_TrROS]” were, in that order, 0.241 ± 0.093 kcal/mol, 0.934 ± 0.096 kcal/mol and 0.675 ± 0.13 kcal/mol.
For the sequence “SATMLDYILDMAREQQEKNGKPVPITITIPVRRDPNGKFRMNEIHEELIKALKEAFPNVPIKIEMVPPPSAG [r14_636_TrROS]”, the “folding stability dG unfold” value is 2.23 ± 0.076 kcal/mol in data set [1], 2.27 ± 0.036 kcal/mol in data set [2] and 2.28 ± 0.12 kcal/mol in data set [3].
The like results for “SATPTLTLEFEVEVEDPNAPGVPAPAKFTAEVAVTPPPVLYVGGEPWAGALLEQGLVTVGPDGLIAIPASAG [r14_582_TrMRF]” were, in that order, 0.442 ± 0.072 kcal/mol, 1.11 ± 0.13 kcal/mol and 0.775 ± 0.13 kcal/mol.
Regarding “SAVFIEVERDPGDGAYEVTIHYLIPLRPYKDPDGKQKPPVYFMIEITIRFSPNGQIRDLDIDIFPFDAPSAG [r14_246_TrROS]”, the “folding stability dG unfold” value was 3.53 ± 0.13 kcal/mol in data set [1], 4.41 ± 0.15 kcal/mol in data set [2] and 4.28 ± 0.37 kcal/mol in data set [3].
The corresponding values for “SAVITLPDGTTVPSTVVEETETPDGVRITVRTERDGVLEIVDLYEPPGGEVTVLSTEVVPVPPGDPALESAG [r14_13_JUSTAS]” are 0.518 ± 0.028 kcal/mol, -0.00381 ± 0.062 kcal/mol and 0.285 ± 0.091 kcal/mol.
The like results for “SAVLRIPNPITGEVRTLTLPTEVPAVSPDGVTSFRSPENLAAAIRALPSDVKVLSVVEHPDGTVTIVVDPSA [r9_997_TrMRF]” were, in that order, 0.102 ± 0.059 kcal/mol, -0.414 ± 0.15 kcal/mol and -0.0685 ± 0.064 kcal/mol.
With “SAVPAEGMSPEEAAALAEEVREAFEAEVKAAGGPIPADTVVTVDYALEGSPVTITLTFTTPDSVSTTVASAG [r14_501_JUSTAS]”, the entries for the “folding stability dG unfold” value in data set [1], in data set [2] and in data set [3] were 1.12 ± 0.045 kcal/mol, 0.57 ± 0.079 kcal/mol and 0.906 ± 0.06 kcal/mol, respectively.
The like results for “SAVTPISLPSETGTLYRTDTDVILVVLKDPDPSVYRIITLKKKSADIKPLDENILGELSPEEANNPELLSAG [r14_384_JUSTAS]” were, in that order, 0.617 ± 0.055 kcal/mol, 0.756 ± 0.11 kcal/mol and 0.742 ± 0.081 kcal/mol.
Take “SAWIPIDSPEEAKDIAKEIADNYGLEDTKVEPMPDNYVVVKLEFEMPNENGQKRKRNITIYYDPDGKFWSAG [r14_420_TrROS]”: the “folding stability dG unfold” value in data set [1] was determined as 0.973 ± 0.04 kcal/mol; in data set [2], 1.07 ± 0.083 kcal/mol; in data set [3] it was 1.1 ± 0.099 kcal/mol.
The corresponding values for “SDDKNMKPVKFKVEIEEERIEENGKKYIKIEVTWPGGNTVKIWFDPDKLIITFPVRSVEDVLEEVKDLIKSA [r9_662_TrROS]” are 2.19 ± 0.064 kcal/mol, 3.52 ± 0.039 kcal/mol and 3.06 ± 0.085 kcal/mol.
The corresponding values for “SDDPKDKKKPKPEITMVPIVFKIPPGDELKIEEDPNGMIEVRVPNGHWIRVWILVNPDGNILNVMIEPWPSA [r9_1195_TrROS]” are 2.01 ± 0.15 kcal/mol, 3.21 ± 0.066 kcal/mol and 2.82 ± 0.23 kcal/mol.
The like results for “SDIENMPPEQFVHYIREALDEERENNPGEPVRIPIKDLGDKFPGFPPSMLKDMLGLTEDDLNNGPITIRPSA [r9_525_TrROS]” were, in that order, -0.193 ± 0.079 kcal/mol, -0.189 ± 0.28 kcal/mol and -0.0917 ± 0.23 kcal/mol.
As to “SDKIVKLIKKIMEEMGLPITKITDVEPGWIVIRMPNGWKIDIEIDPDDPDVIDIKWQPDPNGGMYMVIPVSA [r9_809_TrROS]”, the “folding stability dG unfold” value in data set [1] turned out to be 2.03 ± 0.078 kcal/mol; in data set [2], 2.65 ± 0.069 kcal/mol; in data set [3] it was 2.6 ± 0.21 kcal/mol.
As to “SDLEAVLAAIDAVPPGTVVRIRLTLPDGVPLEITFDAGKEEIKALLEELVKEHPDVPIGIEIEVFPPEELSA [r9_37_TrMRF]”, the “folding stability dG unfold” value in data set [1] was found to be 3.38 ± 0.1 kcal/mol; in data set [2], 3.71 ± 0.093 kcal/mol; in data set [3], 3.61 ± 0.081 kcal/mol.
The like results for “SDPNGKPKKRRFYVMITVPHKMKPERDPDGKMEMEHKMPTVMFPFPADDLDDLRDILEPFGISVSLMPLDSA [r9_1209_TrROS]” were, in that order, 1.6 ± 0.057 kcal/mol, 2.14 ± 0.066 kcal/mol and 1.94 ± 0.093 kcal/mol.
Consider “SDREFEAVFLVETPEEVEALARELALPGVEVEVHVLPAPYLDPETGEPRPFLLAVVRVRVPVPPPGPGALSA [r9_962_TrMRF]”, for which the “folding stability dG unfold” value in data set [1] stood at 0.969 ± 0.044 kcal/mol; in data set [2], 2.56 ± 0.055 kcal/mol; in data set [3] it was 2.12 ± 0.088 kcal/mol.
The like results for “SDRFTATVEYPDTGKTETIELDPSHLSITVEFTGSATFRVTISYDVNGDTFTVEAEFTAPLAPVPPEAFLSA [r9_1067_TrMRF]” were, in that order, 2.25 ± 0.15 kcal/mol, 2.67 ± 0.028 kcal/mol and 2.51 ± 0.11 kcal/mol.
Take “SDWKIVDIEREGNWYTITIQFKNPDGNPWMVTLYMPPNGPYRVEVYPPGDGKEREVRVPMDDIDEILDAISA [r9_91_TrROS]”: the “folding stability dG unfold” value in data set [1] worked out at 1.33 ± 0.053 kcal/mol; in data set [2] it was 2.96 ± 0.038 kcal/mol; in data set [3], 2.49 ± 0.11 kcal/mol.
Consider “SEAEAVTFPVPNPEDGELVADLAVARNPETGEWTVRLEHEDGKTVEVTFPEDEELPVDGLPPGLRATFTGSA [r9_1150_TrMRF]”, for which the entries for the “folding stability dG unfold” value in data set [1], in data set [2] and in data set [3] were -0.195 ± 0.12 kcal/mol, -0.916 ± 0.7 kcal/mol and -0.401 ± 0.13 kcal/mol, respectively.
The like results for “SEEEVEEPEVRVEVREIRLDDLTEEERRRLRELAERLAREEPPEELPPGYRVRVEIRDGVIVSVEVEPVPSA [r9_905_TrROS_Hall]” were, in that order, 1.84 ± 0.039 kcal/mol, 1.9 ± 0.075 kcal/mol and 1.85 ± 0.16 kcal/mol.
The corresponding values for “SEIEIEPLTLDEPVEYRVPEGGFTITAYAAPGPLLVRVRIPGTGEEFEIAVPLGEPNWEEVAEAVVRAIRSA [r9_982_TrMRF]” are 1.759 ± 0.015 kcal/mol, 1.27 ± 0.086 kcal/mol and 1.56 ± 0.058 kcal/mol.

Values taken from the supplement of paper PMC12764529.
